This is an account of results in patent US20110212094A1 (AbbVie / Abbott, published 2011).

For assay [1], the target named is NGF (Neuroscreen-1 bioassay). In words: cell-based or functional assay.
In assay [2] the target is T1, Recombinant Human β-NGF (human, UniProt P01138 122-239, limits assumed).
T1 construct: Bought reagent used in the Biacore analyses
The experiment in a line: Biacore SPR; 25 C, HBS-EP pH 7.4; antibody captured on the chip, antigen 10-200 nM in flow. Here is the method: The BIACORE assay (Biacore, Inc, Piscataway, N.J.) determines the affinity of antibodies or DVD-Ig with kinetic measurements of on-rate and off-rate constants. Binding of antibodies or DVD-Ig to a target antigen (for example, a purified recombinant target antigen) is determined by surface plasmon resonance-based measurements with a Biacore® 1000 or 3000 instrument (Biacore® AB, Uppsala, Sweden) using running HBS-EP (10 mM HEPES [pH 7.4], 150 mM NaCl, 3 mM EDTA, and 0.005% surfactant P20) at 25° C. All chemicals are obtained from Biacore® AB (Uppsala, Sweden) or otherwise from a different source as described in the text. […] The association and dissociation rate constants, kₘ (M⁻¹s⁻¹) and koff (s⁻¹) are determined under a continuous flow rate of 25 μl/min. […] The equilibrium dissociation constant (M) of the reaction between antibodies or DVD-Igs and the target antigen is then calculated from the kinetic rate constants by the following formula: KD=koff/kₒₙ. Binding is recorded as a function of time and kinetic rate constants are calculated.
(In general: In SPR one partner is held on a chip, and binding of the other changes the refractive index at the surface.)

The target of assay [3] is T1, Recombinant Human β-NGF. The experiment in a line: Biacore SPR. As to the method: The BIACORE assay (Biacore, Inc, Piscataway, N.J.) determines the affinity of antibodies or DVD-Ig with kinetic measurements of on-rate and off-rate constants. Binding of antibodies or DVD-Ig to a target antigen (for example, a purified recombinant target antigen) is determined by surface plasmon resonance-based measurements with a Biacore® 1000 or 3000 instrument (Biacore® AB, Uppsala, Sweden) using running HBS-EP (10 mM HEPES [pH 7.4], 150 mM NaCl, 3 mM EDTA, and 0.005% surfactant P20) at 25° C. All chemicals are obtained from Biacore® AB (Uppsala, Sweden) or otherwise from a different source as described in the text. For example, approximately 5000 RU of goat anti-mouse IgG, (Fcγ), fragment specific polyclonal antibody (Pierce Biotechnology Inc, Rockford, Ill.) diluted in 10 mM sodium acetate (pH 4.5) is directly immobilized across a CM5 research grade biosensor chip using a standard amine coupling kit according to manufacturer's instructions and procedures at 25 μg/ml. Unreacted moieties on the biosensor surface are blocked with ethanolamine. Modified carboxymethyl dextran surface in flowcell 2 and 4 is used as a reaction surface. Unmodified carboxymethyl dextran without goat anti-mouse IgG in flow cell 1 and 3 is used as the reference surface. For kinetic analysis, rate equations derived from the 1:1 Langmuir binding model are fitted simultaneously to association and dissociation phases of all eight injections (using global fit analysis) with the use of Biaevaluation 4.0.1 software. Purified antibodies or DVD-Ig are diluted in HEPES-buffered saline for capture across goat anti-mouse IgG specific reaction surfaces. Antibodies or DVD-Ig to be captured as a ligand (25 μg/ml) are injected over reaction matrices at a flow rate of 5 μl/min. The association and dissociation rate constants, kₘ (M⁻¹s⁻¹) and koff (s⁻¹) are determined under a continuous flow rate of 25 μl/min. Rate constants are derived by making kinetic binding measurements at different antigen concentrations ranging from 10-200 nM. The equilibrium dissociation constant (M) of the reaction between antibodies or DVD-Igs and the target antigen is then calculated from the kinetic rate constants by the following formula: KD=koff/kₒₙ. Binding is recorded as a function of time and kinetic rate constants are calculated.

T1 sequence (P01138 122-239 limits assumed): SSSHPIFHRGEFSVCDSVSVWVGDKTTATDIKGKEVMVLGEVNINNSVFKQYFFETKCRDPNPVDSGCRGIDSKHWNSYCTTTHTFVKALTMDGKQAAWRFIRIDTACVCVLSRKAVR

B1: AB020 (antibody, V domains shown)
VH: QVQLQESGPGLVKPSETLSLTCTVSGFSLIGYDLNWIRQPPGKGLEWIGIIWGDGTTDYNSAVKSRVTISKDTSKNQFSLKLSSVTAADTAVYYCARGGYWYATSYYFDYWGQGTLVTVSS
VL: DIQMTQSPSSLSASVGDRVTITCRASQSISNNLNWYQQKPGKAPKLLIYYTSRFHSGVPSRFSGSGSGTDFTFTISSLQPEDIATYYCQQEHTLPYTFGQGTKLEIKR
notes: Parent anti-NGF antibody; also called NGF; AB020VH
For orientation: Kd means the free concentration of one partner at which half of the binding sites on the other are occupied at equilibrium, for simple one-to-one binding. What is called koff is the first-order rate constant of dissociation. The kon is the rate constant with which the complex forms. Regarding B1, the “NGF Inhibition Assay EC50 pM (ERK1/2 phosphorylation, Neuroscreen-1 cells)” value in assay [1] was 53 pM. In the assay with Recombinant Human β-NGF [2], the Kd was found to be 6.73 pM. In the assay with Recombinant Human β-NGF [3], the koff came to 4.08e-06 s⁻¹ and the kon is 606000 M⁻¹ s⁻¹.
